Molecular target: T.ni-cell expression optimized human P2X4 construct (P2X4^T.ni) (human) (UniProt Q99571)

“T.ni-cell expression optimized human P2X4 construct (P2X4^T.ni) (from UniProt Q99571-1 1-388) (receptor)” showed a stoichiometry N of 3.
